Assay results reported in the DeepSol protein solubility set.

Test: soluble on expression in E. coli; label from the status in PepcDB or PDB records
For “MSLDKQNHKIFEILADKVSAKDNVITASGNAILLNYDVYILADKVRYDTKTKEALLEGNIKVYRGEGLLVKTDYVKLSLNEKYEIIFPFYVQDSVSGIWVSADIASGKDQKYKVKNMSTSGCSIDNPIWHVNATSGSFNMQKSHLSMWNPKIYVGDIPVLYLPYIFMSTSNKRTTGFLYPEFGTSNLDGFIYLQPFYLAPKNSWDMTFTPQIRYKRGFGLNFEARYINSKNDRFLFNARYFRNYTQYVKRYDLRNQNIYGFEFLSSSRDTLQKYFHLKSNIDNGHYIDFLYMNDLDYVRFEKVNKRITDATHMSRANYYLQTENNYYGLNIKYFLNLNKINNNRTFQSVPNLQYHKYLNSLYFRNLLYSVDYQFRNTAREIGYGYVQNALNVPVGLQFSLFKKYLSLGLWNDLQLSNVALMQSKNSFVPTIPNESREFGNFVSSNFSMYVNTDLAREYNKLFHTIQLEAIFNIPYYTFKNGLFSQNMYALSAQALNSYTSPLLRDYDYQGRLYDSVWNPSSILPSNASNKTVDLTLTQYLYGLGGQELLYFKISQLINLDDKVSPFRMPLESKIGFSPLTGLNIFGNVFYSFYQNRLEEISVNANYQRKFLSFNLSYFLKNNFSSGINSIVENEGHHHHHH”, the “soluble on expression in E. coli” value was “not soluble”. With “MSLDLHLTNKLALITGSTKGIGKAIAIEMAREGTDVIINGRNEAEVTKVVKEIQTMFPDTHPQAGTADISIESQRATLLEKFPKVDILVNNMGIFEPMEYWDIDDATWEKFFTVNVLSGNALAKAYLPKMLAQDFGRIIFIASEEAVMPSGEMPQYSMTKTMNLSLAKSLSNLTVGTHVTVNTVMPGSTLTEGVEKMLEDMYADSDIPKEDWEKDFMKNHRSRSQIQRLIRPEEIGRFVTFVASPDSSSFSGEALRIDGGLVPTIEGHHHHHH” the “soluble on expression in E. coli” value was “soluble”. For “MSLDLKLGGQVILVVGGAGTIGSEVVKLLTEEGATAVAASRSTPLSIDASDEASVRAGIDQVIAEHGRLDGLVVSSAPAAQTLSAETADDPDTVLAAIEGKAITFMKAATVALEKMREAGHGRIVALSGMNSYKTLSTTASARNAALNVVVKNLADRHAGTGITVNAISPGFVVAEPDAEVNRANGDTTVEEVAEAIAFLLSPRTASISGEIISVGHKAKGEGHHHHHH”, the “soluble on expression in E. coli” value was “not soluble”. In the case of “MSLDMKTTHTSLPFAGHTLHFVEFDPASFREQDLLWLPHYAQLQHAGRKRKTEHLAGRIAAIYALREYGYKCVPAIGELRQPVWPAGVYGSISHCGTTALAVVSRQPIGIDIEEIFSAQTARELTDNIITPAEHKRLADCGLAFPLALTLAFSAKESAFKASEIQTDADFLDYQIISRNKQQVIIHRENEMFAVHWQIKEKIVITLCQHDEGHHHHHH”, the “soluble on expression in E. coli” value is reported as “soluble”. For “MSLDNPNSSIFADLLAKASELENIIVTLQHKIQGGYYFLNDIEIISEDDARNFDVELVRLKGICNHMQRYNTKAKMRNIDWPIDVVKTAMTETRSKVFETLDLMKELDGFRDLVSYLRIALSNVNDNDLKTEIISSIDGIKEVINKGKQARDAYKLKLEALKDRYATWYMEAYLKAHISEIDHGKKSAVMLSTEKQLCDIIKNASFINPSRYDNWLRKMNLLKVVNSSVNKNAILSVPTSVDGFNPSMQKDELPELEDLKDELKEIYAEYEQGFHDALEDPTILRNKEMLTQEERSTIQQFIDGNITLNPQYARILIDIINKLQRSFTKVEINHNEMLKIFSRPMTKQQALDALAAYIDNHSRGHKPEDIRIIVKEGHHHHHH”, the “soluble on expression in E. coli” value was “soluble”. With “MSLDNQLINSIIEKYQFSKKQIEAVLTLLEEKNTVPFIARYRKEQTGGLDEVQIKQIDDEYQYMVNLQKRKEEVIKNIEQQGLLTEELKKDILKQNKLQRVEDLYRPFKQKKKTRATEAKRKGLEPLAIWMKARKHEVSIEEKAQQFINEEVQSVEDAIKGAQDIIAEQISDNPKYRTKILKDMYHQGVLTTSKKKNAEDEKGIFEMYYAYSEPIKRIANHRVLAVNRGEKEKVLSVKFEFDTTSVEDFIARQEINHNNVNRSYILEAIKDSLKRLIVPSIEREIHADLTEKAENHAIDVFSENLRNLLLQPPMKGKQILGVDPAFRTGCKLAVINPFGTFIAKGVIYPHPPVSKKEAAEKDFVQMVKAYDVQLIAIGNGTASRETEQFVADLIKKHQLPVQFIIVNEAGASVYSASEIARDEFPDFQVEERNAVSIGRHVQDPLSELVKIDPKSIGVGQYQHDFFQEGHHHHHH” the “soluble on expression in E. coli” value was “soluble”. For “MSLDPIEFIQKSASSIASTMHKLKLKYNPFSEKPIRGNTKFFVGRVSELREIGEILGSALHGSVANAAIVGTKGIGKSSMLNIIYYATKKQGHWVVEMTASQVTPRQFLIQLLYNILTENIITMSGTIKSDYMEHSSRILDMYRKLNNYGDKVPIHYPRERIERDLEYLINEVKSPDKLCIILIDEADQFAKKSCLSLLQFFHSFLYEEGILTFMAGSPTLMDDLTKISPPIKDRIPKIINMPPLSKDESYDLIRRRLEDAHIDGAEEFEPFTEEAIHKIVEECDGIPRKIIMTCSESISIAIRKGLTKIDEKVVKEAMHSLGISVGHQILNHLTPAQSEIVRAMAELGGSATVTQLAEYLKKSPSTIGTHLSDIYEMGYIYKEREGNNVYYKLSKELRDVLIGEDDEGHHHHHH”, the “soluble on expression in E. coli” value was “soluble”. With “MSLDQFDCKVSATGGWDCSPLQNANANLPPRPAHTATSVSTAAAGSSVSGSGGETVEAEPTQRLVTESGGRALKSRSADYSHLDWIPREKLTAAQLAEIGPYCGGSYIEPVRPGMDDGAPSDESPTYVSAKASRYEQEKQIATLAGDVVLRQGSMQVEGDEANLHQLENRGELVGNVKLRDKGMLVVGDHAQVQLDNGEAQVDNAEYVIHKAHARGSALYAKRSENAIIMLKDGTYTRCEPSSNAWTLKGNNVKLNPATGFGTATNATLRVKDFPVFYTPYIYFPIDDRRQSGFLPPSFSSTSDTGFTLVTPYYFNLAPNYDATLYPRYMAKRGMMLEGEFRYLTHSSEGIVNAAYLNDKDDHREGFPDYSKDRWLYGLKNTTGLDSRWLAEVDYTRISDPYYFQDLDTDLGVGSTTYVNQRGTLTYRGDTFTGRLNAQAYQLATTTDVTPYDRLPQITFDGFLPYNPGGMQFTYGTEFVRFDRDLDENIYFNDDGSIRGKRPDASLQGLARATGDRMHLEPGMSLPMTRSWGYVTPTLKYLYTKYDLDLDSQGKTDLNKRDESFDSNQDRSLPLVKVDSGLYFDRDTTFAGTPFRQTLEPRAMYLYVPYKDQDSLPVFDTSEPSFSYDSLWRENRFTGKDRIGDANQLSLGVTSRFIEENGFERASISAGQIYYFRDRRVQLPGLTEKDLKRLNLDPSGLDNDSWRSPYAFAGQYRFNRDWRINSDFNWNPNTSRTESGSAIFHYQPEVDPGKVVNVGYRYRADARRFDSSRGTFRYGNENDIIKQHDFSVIWPLVPQWSVLARWQYDYNKNRTLEAFGGFEYDSCCWKLRLINRYWLDVDDDAFLVQSEKADRGIFLQIVLKGLGGIVGNKTEMFLDKGIQGYRQREEGHHHHHH” the “soluble on expression in E. coli” value was “not soluble”. For “MSLDQPVVGLITKTDTNPFFVKMKQGAEAAASKDGAKLITAAGKFDGDNASQVTAIENMMTAGAKAILITPSDTKAIVPSIKKARAAGVMVVALDTPTDPQDATDALFATDNFKAGVLIGKYAKAALNGKPAKIATLDLAPGVSVGVLRHNGFLEGFGVKEGDPSVVCSQDTRGDQAKGQTAMENCLQKSPDINVVYTINEPAAAGAYRALKAAGKDKSVMIVSIDGGCEGVRNVKAGAIAATSQQYPLKMASLGVTAGVEYAKTGKKVSGYQDTGVTLITDKPMAGIDSKDTKFGLDNCWGNEGHHHHHH”, the “soluble on expression in E. coli” value was “soluble”. In the case of “MSLDVISELVKKNGSKILLIVLDGLGGLPVKEGKTELELAKTPNLDKLVKNSATGLHIPVDWGITPGSGPGHLGLFGYDPIKYQIGRGILEALGLGIDVKDTDIAVRGNYATVEYRNGKPIVVDRRAGRIPTEENKRITAKLQEAIKEIDGVQVIIKPGMEHRLAIVFRFPEKLSPGSDAINDTDPQQVGKEPLEPKGENPNAEKVAEVVRKFIQRATEILRNEPKANYILLRGFSQKPDIPTMEERFGVKPCCIAVYPMYKGLASLVGMDVIEFEGSTIQDEIDTLKKVWNEYDYFFVHIKKTDSYGEDGNYEGKVSVIEDFDAHLPQFLELKPDVLAITGDHSTPSILKGHSWHPVPLLIHSPYVLGGTSERFTERECLKGELGIIPAVKITQLLLANALRLKKYGAEGHHHHHH”, the “soluble on expression in E. coli” value is reported as “soluble”. In the case of “MSLDYDLLIKNGQTVNGMPVEIAIKEKKIAAVAATISGSAKETIHLEPGTYVSAGWIDDHVHCFEKMALYYDYPDEIGVKKGVTTVIDAGTTGAENIHEFYDLAQQAKTNVFGLVNISKWGIVAQDELADLSKVQASLVKKAIQELPDFVVGIKARMSRTVIGDNGITPLELAKQIQQENQEIPLMVHIGSAPPHLDEILALMEKGDVLTHCFNGKENGILDQATDKIKDFAWQAYNKGVVFDIGHGTDSFNFHVAETALREGMKAASISTDIYIRNRENGPVYDLATTMEKLRVVGYDWPEIIEKVTKAPAENFHLTQKGTLEIGKDADLTIFTIQAEEKTLTDSNGLTRVAKEQIRPIKTIIGGQIYDNEGHHHHHH”, the “soluble on expression in E. coli” value is reported as “soluble”. For “MSLEAKQTKKSLPLRSEIPVEETWRLEDIFPTDEAWEQEFQEVKKMIPKLAEYQGRLGESADVLYEALQYQDEVSMRLGKLYTYAHMRYDQDTTNAFYQGLNDRATSLYSEASSAMAFIVPEILAIDEVKLRSFLEEKQELKLYEHALDEINRQRPHVLSAEEEALLAQAAEVMQSSSSTFSMLNNADLTFPTIIDENGEEVEVTHGRFIRFLESTDRRVRRDAFKAVYDTYEKYKNTFASTLAGTVKKDNFFARVRRYKSAREAALSSNNIPESVYDNLIETVHEHLPLLHRYVRLRKKVLGLDELHMYDLYTPLVQDVKMEVTYEEAKEYMLKALAPLGEEYISIVKEGLENRWVDVRENKGKRSGAYSSGAYGTHPYILLNWQDNVNNLFTLVHEFGHSVHSYYTRKTQPYPYANYSIFVAEVASTCNEALLNDYLLKTMDEEKKRLYLLNHYLEGFRGTVFRQTMFAEFEHMIHIKAQEGEALTADSLTSLYYELNKKYFGDDIVVDQEIGLEWARIPHFYYNYYVYQYATGFSAATALSKQILEEGEPAVKRYIEFLKAGSSDYPIEVLKKAGVDMTSAEPIRQACQVFAEKLEEMENLLSEGHHHHHH”, the “soluble on expression in E. coli” value was “soluble”. In the case of “MSLEAKVDKPRLNQEQAIAIAAVNSQQGFGCFLLEGVTGSGKTEVYLNLITPVLARGEQALVLVPEIGLTPQTINRFRQRFNVPVEVMHSALNDTERLNAWLAARDKVAGIVIGTRSALLTPFAKLGIIIVDEEHDSSYKQQDSLRYHARDVAVMRAHLENIPIVLGSATPALETLHNALSGKYHHLQLTQRAGNALPTRNHALDVKGLYLESGLSAPLIAEMRRHLSAGNQVMLFLNRRGFSPALMCHECGWIAECQRCDAYYTYHQHSNEMRCHHCGSQRPVLHQCKGCGSTQLVTVGVGTEQLEAQLHTLFPEYRSVRIDRDSTRRKGSLESALTAIRKGEYQILIGTQMLAKGHHFPDVTLVALLDVDGSLYSSDFRASERLAQLFIQVAGRAGRASKPGEVVLQTHHPEHSLLQALLHKDYHHFALTALEERKLAQLPPYSFLSLFRAEANHTAQVEDFLRQVRETLRCNPWFDSECMVLGPTPAPLAKRAGKFRWQLLLQTPNRTLMQKILQSARPALQQLPLASKVRWSIDIDPQDLSEGHHHHHH”, the “soluble on expression in E. coli” value is reported as “not soluble”. For “MSLEDTGIFGYSRAGSINGIEYPYVINVKTDFVENDGKLNFMGEEIDRMLIYPSQIKQEIVETESFVIIPNGAELIRRPKNLVSIIMNVHEKYGFSKLIYLSGLPDPYSIPALVYLGVSFFDDAYFRIEGINGLQFTQYGIRRTNEDQTENNMNFVRSMLNVIKDSIMNGTLRDIVEKNLVSSKAAEMIRIADYSYYEEYEKIFPSRTPYIKANTIEDLYRPDIVRYREYVANLYEKPDLDVAVILPCSAKKPYSKSKSHQKVINSLSDLRKYIHEIIVTSPLGVVPRDLEETYPAMFYDIPVIGLWYEDEKVMMKRMLRSYMSRNKYRKVIAFVPDDLEFITDSIPYDTEFIEFKSSNLSKLRQTVEKEKFASKSIDQKKAKYESVLKYQFGSWILPLINGYSLRRNYNQDMIVKDGKILFVYNERLGKFTINKASAEMFVKNGRFLVEIDDFKPTSNVYAMGVRDATDDIRQEDEVVLVHSGEIRGVGIAKMNARAMMELKKGIAVKVREGHHHHHH”, the “soluble on expression in E. coli” value was “soluble”.
